The assay deals with T1, CTI2 (Arabidopsis thaliana, UniProt Q9M8T2).
T1 chain: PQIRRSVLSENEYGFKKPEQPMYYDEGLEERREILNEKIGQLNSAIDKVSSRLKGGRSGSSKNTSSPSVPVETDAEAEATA
In words: MST.

By Kd is commonly meant a measure of binding affinity in units of concentration. Low readings indicate tighter binding, high ones weaker binding.

B1: alphaCT (protein)
chain: INMKKREAVFSDSRKLQGEVDKLKEQILKAKETSTEAEPSSEVLNEMIEKLKSEIDDEYTEAAIAVGLEERLTAMREEFSKASSEEHLMHPVLIEKIEKLKEEFNTRLTDAPNYESLKSKLNMLRDFSRAKAASEATSLKKEINKRFQEAVDRPEIREKVEAIKAEVASSGASSFDELPDALKEKVLKTKGEVEAEMAGVLKSMGLELDAVKQNQKDTAEQIYAANENLQEKLEKLNQEITSKIEEVVRTPEIKSMVELLKVETAKASKTPGVTEAYQKIEALEQQIKQKIAEALNTSGLQEKQDELEKELAAARELAAEESDGSVKEDDDDDEDSSESGKSEMVNPSFA
Consider B1, for which binding was put at a Kd of 1.4 µM.

The record behind these values is publication PMC7712654 (2020).
